From patent publication US7943340B2, “Fungal dipeptidyl peptidase IV (DPPIV) enzyme for reagent use” (priority 2003, dated 2011)
“Also recorded” adds a separate entry of the source.

B1: fuLAP2: A. fumigatus leucine aminopeptidase, 498 amino acid residues (SEQ ID NO: 9) (protein, listed as Aspergillus fumigatus)
chain: MKLLYLTSFASLAVANGPGWDWKPRVHPKVLPQMIHLWDLLQGAQQLEDFAYAYPERNRVFGGRAHEDTVNYLYRELKKTGYYDVYKQPQVHQWTRADQALTVDGQSYDATTMTYSPSVNATAPLAVVNNLGCVEADYPADLTGKIALISRGECTFATKSVLSAKAGAAAALVYNNIEGSMAGTLGGATSELGAYAPIAGISLADGQALIQMIQAGTVTANLWIDSQVENRTTYNVIAQTKGGDPNNVVALGGHTDSVEAGPGINDDGSGIISNLVVAKALTRFSVKNAVRFCFWTAEEFGLLGSNYYVNSLNATEQAKIRLYLNFDMIASPNYALMIYDGDGSAFNLTGPAGSAQIERLFEDYYTSIRKPFVPTEFNGRSDYQAFILNGIPAGGLFTGAEAIKTEEQAQLFGGQAGVALDANYHAKGDNMTNLNREAFLINSRATAFAVATYANSLDSIPPRNMTTVVKRSQLEQAMKRTPHTHTGGTGCYKDRVEQ
B2: pkLAP: commercially available microsomal LAP from porcine kidney (MEROPS>M1 family) (protein, UniProt P15145 2-963, looked up)
Aminopeptidase N: AKGFYISKALGILGILLGVAAVATIIALSVVYAQEKNKNAEHVPQAPTSPTITTTAAITLDQSKPWNRYRLPTTLLPDSYNVTLRPYLTPNADGLYIFKGKSIVRLLCQEPTDVIIIHSKKLNYTTQGHMVVLRGVGDSQVPEIDRTELVELTEYLVVHLKGSLQPGHMYEMESEFQGELADDLAGFYRSEYMEGNVKKVLATTQMQSTDARKSFPCFDEPAMKATFNITLIHPNNLTALSNMPPKGSSTPLAEDPNWSVTEFETTPVMSTYLLAYIVSEFQSVNETAQNGVLIRIWARPNAIAEGHGMYALNVTGPILNFFANHYNTSYPLPKSDQIALPDFNAGAMENWGLVTYRENALLFDPQSSSISNKERVVTVIAHELAHQWFGNLVTLAWWNDLWLNEGFASYVEYLGADHAEPTWNLKDLIVPGDVYRVMAVDALASSHPLTTPAEEVNTPAQISEMFDSISYSKGASVIRMLSNFLTEDLFKEGLASYLHAFAYQNTTYLDLWEHLQKAVDAQTSIRLPDTVRAIMDRWTLQMGFPVITVDTKTGNISQKHFLLDSESNVTRSSAFDYLWIVPISSIKNGVMQDHYWLRDVSQAQNDLFKTASDDWVLLNVNVTGYFQVNYDEDNWRMIQHQLQTNLSVIPVINRAQVIYDSFNLATAHMVPVTLALDNTLFLNGEKEYMPWQAALSSLSYFSLMFDRSEVYGPMKKYLRKQVEPLFQHFETLTKNWTERPENLMDQYSEINAISTACSNGLPQCENLAKTLFDQWMSDPENNPIHPNLRSTIYCNAIAQGGQDQWDFAWGQLQQAQLVNEADKLRSALACSNEVWLLNRYLGYTLNPDLIRKQDATSTINSIASNVIGQPLAWDFVQSNWKKLFQDYGGGSFSFSNLIQGVTRRFSSEFELQQLEQFKKNNMDVGFGSGTRALEQALEKTKANIKWVKENKEVVLNWFIEHS

Tests used:
[1] = system: all the LAPs tested (ruLAP1, ruLAP2, fuLAP1, fuLAP2, pkLAP); assay type: biochemical; settings: Leu-AMC 5 mM; amastatin 500 μM; ortho-phenantroline 1 and 5 mM; others as
Description: Inhibitors and metallic cations were pre-incubated with the enzymes for 15 min at 37° C. Then, Leu-AMC at a 5 mM final concentration was added. After further incubation for 60 min, enzyme activity was measured as described above. The inhibitors and their concentrations tested purified LAPs were: 500 μM amastatin (Bachem), 40 μM benzamidine (Sigma), 500 μM bestatin (Bachem), 5 mM/l mM EDTA (Sigma). 100 μM E-64 (L-trans-epoxysuccinyl-leu-4-guanidinobutylamide) (Bachem), 100 μM leupeptin (Sigma), 5 mM/1 mM ortho-phenanthroline (Sigma), 500 μM p-chloromercuribenzoic acid (Sigma), 100 μM pepstatin A (Sigma), 40 μM PMSF (Sigma), 20 μM TLCK (Roche Diagnostics), and 20 μM TPCK (Roche Diagnostics).

[2] = system: T. rubrum secreted proteolytic activity; assay: Inhibition of T. rubrum secreted proteolytic activity (resorufin-labeled casein); assay type: biochemical, Trichophyton rubrum; settings: resorufin-labeled casein as substrate
Description: The proteolytic activity was measured using resorufin-labeled casein in phosphate buffer (20 mM; pH 7.4). The reaction mixture contained 0.02% substrate in a total volume of 0.5 ml. After incubation at 37° C., the undigested substrate was precipitated by trichloroacetic add (4% final concentration) and separated from the supernatant by centrifugation. The absorbance at 574 nm of the supernatant was measured after alkalinization by adding 500 μl Tris buffer (500 mM; pH 9.4). For practical purposes, one unit (U) of proteolytic activity was defined as that producing an absorbance of 0.001 per min.
T. rubrum was grown at 30° C. in a medium containing 0.2% soy protein as a sole carbon and nitrogen source. After 14 days of growth, a concomitant clarification of the culture medium was noted and a substantial proteolytic activity (400 U ml^−1) detected using resorufin-labeled casein as substrate. This proteolytic activity was 15% and 85% inhibited by PMSF and ortho-phenanthroline. respectively, attesting that serine and metalloproteases were secreted by T. rubrum. […] In addition, a high activity on substrates such as Leu-AMC and Leu-pNA was detected in the T. rubrum culture supernatant.

[3] = Aminopeptidase P activity assay; assay type: biochemical; settings: substrate Lys(Abz)-Pro-Pro-pNA, 5 mM, 37° C., 60 min
Description: (§1) Aminopeptidase activity was determined using different fluorogenic aminoacyl-4-methylcoumaryl-7-amide derivatives of peptides and the internally quenched fluorogenic substrate Lys(Abz)-Pro-Pro-pNA for specific determination of aminopeptidase P activity. Stockel et al, Adv Exp. Med. Biol. 421:31-35 (1997). All substrates were from Bachem (Bubendorf, Switzerland). Substrate stock solutions were prepared at 0.1 M according to the recommendations of the manufacturer and stored at −20° C. The reaction mixture contained a concentration of 5 mM substrate and enzyme preparation (between 56 and 2,662 ng per assay depending on the cleavage activity of each enzyme for the substrates) in 25 μl of 50 mM Tris-HCl buffer adjusted at the optimal pH for each LAP (between 7 and 8). After incubation at 37° C. for 60 min, the reaction was terminated by adding 5 μl of glacial acetic acid and the reaction mixture was diluted with 3.5 ml of water. The released 7-amino-4-methylcoumarin (AMC) was measured using a spectrofluorophotometer (Perkin Elmer LS-5 fluorometer, Zurich, Switzerland) at an excitation wavelength of 370 nm and an emission wavelength of 460 nm. A standard curve made with synthetic AMC was used to assess the released AMC. The released diprolyl-p-nitroanilide was measured at an excitation wavelength of 310 nm and an emission wavelength of 410 nm. The LA activities were expressed in mnoles of released AMC or pNA/min/μg protein.

[4] = Aminopeptidase activity assay with fluorogenic aminoacyl-AMC substrates; assay type: biochemical; settings: for preference for aminoacyl-AMC substrates compared to Leu-AMC: Leu-AMC used as a reference; for hydrolytic activity toward Ala-AMC in comparison (%) to Leu-MCA: substrate Ala-AMC; for hydrolytic activity toward Ala-AMC in comparison (%) to Leu-MCA / hydrolytic activity toward Arg-AMC in comparison (%) to Leu-MCA / hydrolytic activity toward Asn-AMC in comparison (%) to Leu-MCA / hydrolytic activity toward Asp-AMC in comparison (%) to Leu-MCA / hydrolytic activity toward Cys-AMC in comparison (%) to Leu-MCA / hydrolytic activity toward Gln-AMC in comparison (%) to Leu-MCA / hydrolytic activity toward Glu-AMC in comparison (%) to Leu-MCA / hydrolytic activity toward Gly-AMC in comparison (%) to Leu-MCA / hydrolytic activity toward Gly-Pro-AMC in comparison (%) to Leu-MCA / hydrolytic activity toward His-AMC in comparison (%) to Leu-MCA / hydrolytic activity toward Hyp-AMC in comparison (%) to Leu-MCA / hydrolytic activity toward Ile-AMC in comparison (%) to Leu-MCA / hydrolytic activity toward Leu-AMC in comparison (%) to Leu-MCA used as a standard / hydrolytic activity toward Lys-AMC in comparison (%) to Leu-MCA / hydrolytic activity toward Met-AMC in comparison (%) to Leu-MCA / hydrolytic activity toward Phe-AMC in comparison (%) to Leu-MCA / hydrolytic activity toward Pro-AMC in comparison (%) to Leu-MCA / hydrolytic activity toward Pyr-AMC in comparison (%) to Leu-MCA / hydrolytic activity toward Ser-AMC in comparison (%) to Leu-MCA / hydrolytic activity toward Thr-AMC in comparison (%) to Leu-MCA / hydrolytic activity toward Val-AMC in comparison (%) to Leu-MCA: 5 mM, 37° C., 60 min; for hydrolytic activity toward Arg-AMC in comparison (%) to Leu-MCA: substrate Arg-AMC; for hydrolytic activity toward Asn-AMC in comparison (%) to Leu-MCA: substrate Asn-AMC; for hydrolytic activity toward Asp-AMC in comparison (%) to Leu-MCA: substrate Asp-AMC; for hydrolytic activity toward Cys-AMC in comparison (%) to Leu-MCA: substrate Cys-AMC; for hydrolytic activity toward Gln-AMC in comparison (%) to Leu-MCA: substrate Gln-AMC; for hydrolytic activity toward Glu-AMC in comparison (%) to Leu-MCA: substrate Glu-AMC; for hydrolytic activity toward Gly-AMC in comparison (%) to Leu-MCA: substrate Gly-AMC; for hydrolytic activity toward Gly-Pro-AMC in comparison (%) to Leu-MCA: substrate Gly-Pro-AMC; for hydrolytic activity toward His-AMC in comparison (%) to Leu-MCA: substrate His-AMC; for hydrolytic activity toward Hyp-AMC in comparison (%) to Leu-MCA: substrate Hyp-AMC; for hydrolytic activity toward Ile-AMC in comparison (%) to Leu-MCA: substrate Ile-AMC; for hydrolytic activity toward Leu-AMC in comparison (%) to Leu-MCA used as a standard: substrate Leu-AMC (standard); for hydrolytic activity toward Lys-AMC in comparison (%) to Leu-MCA: substrate Lys-AMC; for hydrolytic activity toward Met-AMC in comparison (%) to Leu-MCA: substrate Met-AMC; for hydrolytic activity toward Phe-AMC in comparison (%) to Leu-MCA: substrate Phe-AMC; for hydrolytic activity toward Pro-AMC in comparison (%) to Leu-MCA: substrate Pro-AMC; for hydrolytic activity toward Pyr-AMC in comparison (%) to Leu-MCA: substrate Pyr-AMC; for hydrolytic activity toward Ser-AMC in comparison (%) to Leu-MCA: substrate Ser-AMC; for hydrolytic activity toward Thr-AMC in comparison (%) to Leu-MCA: substrate Thr-AMC; for hydrolytic activity toward Val-AMC in comparison (%) to Leu-MCA: substrate Val-AMC
Description: as §1
Table 15 details the hydrolytic activity of different LAPs toward various aminoacyl-MCA comparison (%) to Leu-MCA used as a standard.

gliadin 33 mer = assay: Digestion of gliadin 33 mer (RP-HPLC, ESI-MS); assay type: biochemical, wheat; settings: 37° C., 1 mM CoCl2, pH7.2

Row | Molecule | hydrolytic activity toward Lys(Abz) Pro-PropNA in comparison (%) to Leu-MCA [3] | hydrolysis of Leu-AMC [4] | preference for aminoacyl-AMC substrates compared to Leu-AMC [4] | hydrolytic activity toward Ala-AMC in comparison (%) to Leu-MCA [4] | hydrolytic activity toward Arg-AMC in comparison (%) to Leu-MCA [4] | hydrolytic activity toward Asn-AMC in comparison (%) to Leu-MCA [4] | hydrolytic activity toward Asp-AMC in comparison (%) to Leu-MCA [4] | hydrolytic activity toward Cys-AMC in comparison (%) to Leu-MCA [4] | hydrolytic activity toward Gln-AMC in comparison (%) to Leu-MCA [4] | hydrolytic activity toward Glu-AMC in comparison (%) to Leu-MCA [4] | hydrolytic activity toward Gly-AMC in comparison (%) to Leu-MCA [4] | hydrolytic activity toward Gly-Pro-AMC in comparison (%) to Leu-MCA [4] | hydrolytic activity toward His-AMC in comparison (%) to Leu-MCA [4] | hydrolytic activity toward Hyp-AMC in comparison (%) to Leu-MCA [4] | hydrolytic activity toward Ile-AMC in comparison (%) to Leu-MCA [4] | hydrolytic activity toward Leu-AMC in comparison (%) to Leu-MCA used as a standard [4] | hydrolytic activity toward Lys-AMC in comparison (%) to Leu-MCA [4] | hydrolytic activity toward Met-AMC in comparison (%) to Leu-MCA [4] | hydrolytic activity toward Phe-AMC in comparison (%) to Leu-MCA [4] | hydrolytic activity toward Pro-AMC in comparison (%) to Leu-MCA [4] | also measured
1 | c1cnc2c(c1)ccc1cccnc12 [ortho-phenanthroline] |  |  |  |  |  |  |  |  |  |  |  |  |  |  |  |  |  |  |  |  | effect of inhibitor on all the LAPs tested [1]: totally inhibited; inhibition of proteolytic activity [2]: 85%
2 | B1 | 0.0% | efficiently hydrolyzed | common preference for Leu-AMC as a substrate | 11.7% | 2.3% | 73.5% | 0.3% | 2.1% | 37.0% | 1.1% | 2.2% | 74.1% | 1.9% | 13.3% | 1.8% | 100.0% | 2.3% | 89.5% | 8.9% | 7.4% | hydrolytic activity toward Pyr-AMC in comparison (%) to Leu-MCA [4]: 0.0%; hydrolytic activity toward Ser-AMC in comparison (%) to Leu-MCA [4]: 10.3%; hydrolytic activity toward Thr-AMC in comparison (%) to Leu-MCA [4]: 0.1%; hydrolytic activity toward Val-AMC in comparison (%) to Leu-MCA [4]: 0.8%
3 | B2 | 0.0% | efficiently hydrolyzed | extremely high efficiency towards Ala-AMC and Arg-AMC; also recorded: common preference for Leu-AMC as a substrate | 584.7% | 174.8% | 33.9% | 0.9% | 35.5% | 50.7% | 4.7% | 74.8% | 16.7% | 17.6% | 1.7% | 6.3% | 100.0% | 70.1% | 46.1% | 184.4% | 7.9% | digestion of the 33 mer (gliadin 33 mer): partial deletion of N-terminal Leu and C-terminal Phe; hydrolytic activity toward Pyr-AMC in comparison (%) to Leu-MCA [4]: 0.0%; hydrolytic activity toward Ser-AMC in comparison (%) to Leu-MCA [4]: 24.6%; hydrolytic activity toward Thr-AMC in comparison (%) to Leu-MCA [4]: 4.4%; hydrolytic activity toward Val-AMC in comparison (%) to Leu-MCA [4]: 4.0%
